Reference: the supplement of paper PMC12458215
± gives the uncertainty stated by the source.

System: HEK293T
Experiment: plasma membrane surface immunostaining intensity (anti-HA, deep receptor scanning) (arbitrary fluorescence units); higher = higher plasma membrane expression

Sequence | plasma membrane surface immunostaining intensity (GPCR class: A) | plasma membrane surface immunostaining intensity (GPCR class: A (Olfactory)) | further results
MPNNSTALSLANVTYITMEIFIGLCAIVGNVLVICVVKLNPSLQTTTFYFIVSLALADIAVGVLVMPLAIVVSLGITIHFYSCLFMTCLLLIFTHASIMSLLAIAVDRYLRVKLTVRYKRVTTHRRIWLALGLCWLVSFLVGLTPMFGWNMKLTSEYHRNVTFLSCQFVSVMRMDYMVYFSFLTWIFIPLVVMCAIYLDIFYIIRNKLSLNLSNSKETGAFYGREFKTAKSLFLVLFLFALSWLPLSIINCIIYFNGEVPQLVLYMGILLSHANSMMNPIVYAYKIKKFKETYLLILKACVVCHPSDSLDTSIEKNSE [ADORA3] | 5830 ± 110 | – | –
MSNITDPQMWDFDDLNFTGMPPADEDYSPCMLETETLNKYVVIIAYALVFLLSLLGNSLVMLVILYSRVGRSVTDVYLLNLALADLLFALTLPIWAASKVNGWIFGTFLCKVVSLLKEVNFYSGILLLACISVDRYLAIVHATRTLTQKRHLVKFVCLGCWGLSMNLSLPFFLFRQAYHPNNSSPVCYEVLGNDTAKWRMVLRILPHTFGFIVPLFVMLFCYGFTLRTLFKAHMGQKHRAMRVIFAVVLIFLLCWLPYNLVLLADTLMRTQVIQESCERRNNIGRALDATEILGFLHSCLNPIIYAFIGQNFRHGFLKILAMHGLVSKEFLARHRVTSYTSSSVNVSSNL [CXCR1] | 5900 ± 170 | – | –
MDTGNWSQVAEFIILGFPHLQGVQIYLFLLLLLIYLMTVLGNLLIFLVVCLDSRLHTPMYHFVSILSFSELGYTAATIPKMLANLLSEKKTISFSGCLLQIYFFHSLGATECYLLTAMAYDRYLAICRPLHYPTLMTPTLCAEIAIGCWLGGLAGPVVEISLISRLPFCGPNRIQHVFCDFPPVLSLACTDTSINVLVDFVINSCKILATFLLILCSYVQIICTVLRIPSAAGKRKAISTCASHFTVVLIFYGSILSMYVQLKKSYSLDYDQALAVVYSVLTPFLNPFIYSLRNKEIKEAVRRQLKRIGILA [OR6N1] | – | 347 ± 130 | –
MKSILDGLADTTFRTITTDLLYVGSNDIQYEDIKGDMASKLGYFPQKFPLTSFRGSPFQEKMTAGDNPQLVPADQVNITEFYNKSLSSFKENEENIQCGENFMDIECFMVLNPSQQLAIAVLSLTLGTFTVLENLLVLCVILHSRSLRCRPSYHFIGSLAVADLLGSVIFVYSFIDFHVFHRKDSRNVFLFKLGGVTASFTASVGSLFLTAIDRYISIHRPLAYKRIVTRPKAVVAFCLMWTIAIVIAVLPLLGWNCEKLQSVCSDIFPHIDETYLMFWIGVTSVLLLFIVYAYMYILWKAHSHAVRMIQRGTQKSIIIHTSEDGKVQVTRPDQARMDIRLAKTLVLILVVLIICWGPLLAIMVYDVFGKMNKLIKTVFAFCSMLCLLNSTVNPIIYALRSKDLRHAFRSMFPSCEGTAQPLDNSMGDSDCLHKHANNAASVHRAAESCIKSTVKIAKVTMSVSTDTSAEAL [CNR1] | 130 ± 25 | – | –
MRMEDEDYNTSISYGDEYPDYLDSIVVLEDLSPLEARVTRIFLVVVYSIVCFLGILGNGLVIIIATFKMKKTVNMVWFLNLAVADFLFNVFLPIHITYAAMDYHWVFGTAMCKISNFLLIHNMFTSVFLLTIISSDRCISVLLPVWSQNHRSVRLAYMACMVIWVLAFFLSSPSLVFRDTANLHGKISCFNNFSLSTPGSSSWPTHSQMDPVGYSRHMVVTVTRFLCGFLVPVLIITACYLTIVCKLQRNRLAKTKKPFKIIVTIIITFFLCWCPYHTLNLLELHHTAMPGSVFSLGLPLATALAIANSCMNPILYVFMGQDFKKFKVALFSRLVNALSEDTGHSSYPSHRSFTKMSSMNERTSMNERETGML [CMKLR1] | 747 ± 64 | – | –
MAMTWIVFSLWPLTVFMGHIGGHSLFSCEPITLRMCQDLPYNTTFMPNLLNHYDQQTAALAMEPFHPMVNLDCSRDFRPFLCALYAPICMEYGRVTLPCRRLCQRAYSECSKLMEMFGVPWPEDMECSRFPDCDEPYPRLVDLNLAGEPTEGAPVAVQRDYGFWCPRELKIDPDLGYSFLHVRDCSPPCPNMYFRREELSFARYFIGLISIICLSATLFTFLTFLIDVTRFRYPERPIIFYAVCYMMVSLIFFIGFLLEDRVACNASIPAQYKASTVTQGSHNKACTMLFMILYFFTMAGSVWWVILTITWFLAAVPKWGSEAIEKKALLFHASAWGIPGTLTIILLAMNKIEGDNISGVCFVGLYDVDALRYFVLAPLCLYVVVGVSLLLAGIISLNRVRIEIPLEKENQDKLVKFMIRIGVFSILYLVPLLVVIGCYFYEQAYRGIWETTWIQERCREYHIPCPYQVTQMSRPDLILFLMKYLMALIVGIPSVFWVGSKKTCFEWASFFHGRRKKEIVNESRQVLQEPDFAQSLLRDPNTPIIRKSRGTSTQGTSTHASSTQLAMVDDQRSKAGSIHSKVSSYHGSLHRSRDGRYTPCSYRGMEERLPHGSMSRLTDHSRHSSSHRLNEQSRHSSIRDLSNNPMTHITHGTSMNRVIEEDGTSA [FZD3] | – | – | plasma membrane surface immunostaining intensity (GPCR class: F): 177 ± 57
MESSGNPESTTFFYYDLQSQPCENQAWVFATLATTVLYCLVFLLSLVGNSLVLWVLVKYESLESLTNIFILNLCLSDLVFACLLPVWISPYHWGWVLGDFLCKLLNMIFSISLYSSIFFLTIMTIHRYLSVVSPLSTLRVPTLRCRVLVTMAVWVASILSSILDTIFHKVLSSGCDYSELTWYLTSVYQHNLFFLLSLGIILFCYVEILRTLFRSRSKRRHRTVKLIFAIVVAYFLSWGPYNFTLFLQTLFRTQIIRSCEAKQQLEYALLICRNLAFSHCCFNPVLYVFVGVKFRTHLKHVLRQFWFCRLQAPSPASIPHSPGAFAYEGASFY [XCR1] | 190 ± 16 | – | –
MLNFTDVTEFILLGLTSRREWQVLFFIIFLVVYIITMVGNIGMMVLIKVSPQLNNPMYFFLSHLSFVDVWFSSNVTPKMLENLLSDKKTITYAGCLVQCFFFIALVHVEIFILAAMAFDRYMAIGNPLLYGSKMSRVVCIRLITFPYIYGFLTSLAATLWTYGLYFCGKIEINHFYCADPPLIKMACAGTFVKEYTMIILAGINFTYSLTVIIISYLFILIAILRMRSAEGRQKAFSTCGSHLTAVIIFYGTLIFMYLRRPTEESVEQGKMVAVFYTTVIPMLNPMIYSLRNKDVKKAMMKVISRSC [OR5M3] | – | 120 ± 24 | –
METQNLTVVTEFILLGLTQSQDAQLLVFVLVLIFYLIILPGNFLIIFTIKSDPGLTAPLYFFLGNLALLDASYSFIVVPRMLVDFLSEKKVISYRSCITQLFFLHFLGAGEMFLLVVMAFDRYIAICRPLHYSTIMNPRACYALSLVLWLGGFIHSIVQVALILHLPFCGPNQLDNFFCDVPQVIKLACTNTFVVELLMVSNSGLLSLLCFLGLLASYAVILCRIREHSSEGKSKAISTCTTHIIIIFLMFGPAIFIYTCPFQAFPADKVVSLFHTVIFPLMNPVIYTLRNQEVKASMRKLLSQHMFC [OR4N5] | – | 216 ± 66 | –
MGRWVNQSYTDGFFLLGIFSHSQTDLVLFSAVMVVFTVALCGNVLLIFLIYLDAGLHTPMYFFLSQLSLMDLMLVCNIVPKMAANFLSGRKSISFVGCGIQIGFFVSLVGSEGLLLGLMAYDRYVAVSHPLHYPILMNQRVCLQITGSSWAFGIIDGVIQMVAAMGLPYCGSRSVDHFFCEVQALLKLACADTSLFDTLLFACCVFMLLLPFSIIMASYACILGAVLRIRSAQAWKKALATCSSHLTAVTLFYGAAMFMYLRPRRYRAPSHDKVASIFYTVLTPMLNPLIYSLRNGEVMGALRKGLDRCRIGSQH [OR2V1] | – | 153 ± 28 | –
MVGDTLKLLSPLMTRYFFLLFYSTDSSDLNENQHPLDFDEMAFGKVKSGISFLIQTGVGILGNSFLLCFYNLILFTGHKLRPTDLILSQLALANSMVLFFKGIPQTMAAFGLKYLLNDTGCKFVFYYHRVGTRVSLSTICLLNGFQAIKLNPSICRWMEIKIRSPRFIDFCCLLCWAPHVLMNASVLLLVNGPLNSKNSSAKNNYGYCSYKASKRFSSLHAVLYFSPDFMSLGFMVWASGSMVFFLYRHKQQVQHNHSNRLSCRPSQEARATHTIMVLVSSFFVFYSVHSFLTIWTTVVANPGQWIVTNSVLVASCFPARSPFVLIMSDTHISQFCFACRTRKTLFPNLVVMP [VN1R1] | – | – | plasma membrane surface immunostaining intensity (GPCR class: Vomeronasal): 140 ± 8.3
